# B1: Interferon regulatory factor 9 (Homo sapiens), Q00978 (parent)
# chain: MASGRARCTRKLRNWVVEQVESGQFPGVCWDDTAKTMFRIPWKHAGKQDFREDQDAAFFKAWAIFKGKYKEGDTGGPAVWKTRLRCALNKSSEFKEVPERGRMDVAEPYKVYQLLPPGIVSGQPGTQKVPSKRQHSSVSSERKEEEDAMQNCTLSPSVLQDSLNNEEEGASGGAVHSDIGSSSSSSSPEPQEVTDTTEAPFQGDQRSLEFLLPPEPDYSLLLTFIYNGRVVGEAQVQSLDCRLVAEPSGSESSMEQVLFPKPGPLEPTQRLLSQLERGILVASNPRGLFVQRLCPIPISWNAPQAPPGPGPHLLPSNECVELFRTAYFCRDLVRYFQGLGPPPKFQVTLNFWEESHGSSHTPQNLITVKMEQAFARYLLEQTPEQQAAILSLV
# partner: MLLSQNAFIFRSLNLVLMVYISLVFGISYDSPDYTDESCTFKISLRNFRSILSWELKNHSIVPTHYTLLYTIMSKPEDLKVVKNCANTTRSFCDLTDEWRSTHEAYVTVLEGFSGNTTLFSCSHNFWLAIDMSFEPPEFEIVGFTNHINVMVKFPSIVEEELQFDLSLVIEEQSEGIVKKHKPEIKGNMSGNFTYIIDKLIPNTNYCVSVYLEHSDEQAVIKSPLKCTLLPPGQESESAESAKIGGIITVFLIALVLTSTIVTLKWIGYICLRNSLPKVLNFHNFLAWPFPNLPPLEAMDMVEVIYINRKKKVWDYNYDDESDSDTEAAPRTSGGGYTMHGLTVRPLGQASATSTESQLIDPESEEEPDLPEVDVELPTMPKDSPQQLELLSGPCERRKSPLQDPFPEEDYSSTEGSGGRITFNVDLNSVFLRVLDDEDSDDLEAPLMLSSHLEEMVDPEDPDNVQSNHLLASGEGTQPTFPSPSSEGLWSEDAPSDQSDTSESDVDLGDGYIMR
# B2: Interferon alpha/beta receptor 2 (Homo sapiens), P48551 (parent)
# chain: B1 partner
# B3: Interferon alpha/beta receptor 2 (Homo sapiens), P48551 (parent)
# chain: B1 partner
# partner: B1 chain
# Variants of: B1
# Conditions: with inar2_human IFNAR2, P48551
row,Variant,effect of a mutation on the interaction
1,MASGRARCTRKLRNWVVEQVESGQFPGVCWDDTAKTMFRIPWKHAGKQDFREDQDAAFFKAWAIFKGKYKEGDTGGPAVWKTRLRCALNKSSEFKEVPERGRMDVAEPYKVYQLLPPGIVSGQPGTQKVPSKRQHSSVSSERKEEEDAMQNCTLSPSVLQDSLNNEEEGASGGAVHSDIGSSSSSSSPEPQEVTDTTEAPFQGDQRSLEFLLPPEPDYSLLLTFIYNGRVVGEAQVQSLDCRLVAEPSGSESSMEQVLFPKPGPLEPTQRLLSQLERGILVASNPRGLFVQQLCPIPISWNAPQAPPGPGPHLLPSNECVELFRTAYFCRDLVRYFQGLGPPPKFQVTLNFWEESHGSSHTPQNLITVKMEQAFARYLLEQTPEQQAAILSLV [R292Q],decreasing interaction

# Variants of: B2
# Conditions: with cbp_human CREBBP
row,Variant,effect of a mutation on the interaction
1,MLLSQNAFIFRSLNLVLMVYISLVFGISYDSPDYTDESCTFKISLRNFRSILSWELKNHSIVPTHYTLLYTIMSKPEDLKVVKNCANTTRSFCDLTDEWRSTHEAYVTVLEGFSGNTTLFSCSHNFWLAIDMSFEPPEFEIVGFTNHINVMVKFPSIVEEELQFDLSLVIEEQSEGIVKKHKPEIKGNMSGNFTYIIDKLIPNTNYCVSVYLEHSDEQAVIKSPLKCTLLPPGQESESAESAKIGGIITVFLIALVLTSTIVTLKWIGYICLRNSLPKVLNFHNFLAWPFPNLPPLEAMDMVEVIYINRKKKVWDYNYDDESDSDTEAAPRTSGGGYTMHGLTVRPLGQASATSTESQLIDPESEEEPDLPEVDVELPTMPKDAPQQLELLSGPCERRKSPLQDPFPEEDYSSTEGSGGRITFNVDLNSVFLRVLDDEDSDDLEAPLMLSSHLEEMVDPEDPDNVQSNHLLASGEGTQPTFPSPSSEGLWSEDAPSDQSDTSESDVDLGDGYIMR [S384A],decreasing interaction
2,MLLSQNAFIFRSLNLVLMVYISLVFGISYDSPDYTDESCTFKISLRNFRSILSWELKNHSIVPTHYTLLYTIMSKPEDLKVVKNCANTTRSFCDLTDEWRSTHEAYVTVLEGFSGNTTLFSCSHNFWLAIDMSFEPPEFEIVGFTNHINVMVKFPSIVEEELQFDLSLVIEEQSEGIVKKHKPEIKGNMSGNFTYIIDKLIPNTNYCVSVYLEHSDEQAVIKSPLKCTLLPPGQESESAESAKIGGIITVFLIALVLTSTIVTLKWIGYICLRNSLPKVLNFHNFLAWPFPNLPPLEAMDMVEVIYINRKKKVWDYNYDDESDSDTEAAPRTSGGGYTMHGLTVRPLGQASATSTESQLIDPEAEEEPDLPEVDVELPTMPKDSPQQLELLSGPCERRKSPLQDPFPEEDYSSTEGSGGRITFNVDLNSVFLRVLDDEDSDDLEAPLMLSSHLEEMVDPEDPDNVQSNHLLASGEGTQPTFPSPSSEGLWSEDAPSDQSDTSESDVDLGDGYIMR [S364A],decreasing interaction

# Variants of: B3
# Conditions: with irf9_human IRF9, Q00978
row,Variant,effect of a mutation on the interaction
1,MLLSQNAFIFRSLNLVLMVYISLVFGISYDSPDYTDESCTFKISLRNFRSILSWELKNHSIVPTHYTLLYTIMSKPEDLKVVKNCANTTRSFCDLTDEWRSTHEAYVTVLEGFSGNTTLFSCSHNFWLAIDMSFEPPEFEIVGFTNHINVMVKFPSIVEEELQFDLSLVIEEQSEGIVKKHKPEIKGNMSGNFTYIIDKLIPNTNYCVSVYLEHSDEQAVIKSPLKCTLLPPGQESESAESAKIGGIITVFLIALVLTSTIVTLKWIGYICLRNSLPKVLNFHNFLAWPFPNLPPLEAMDMVEVIYINRKKKVWDYNYDDESDSDTEAAPRTSGGGYTMHGLTVRPLGQASATSTESQLIDPESEEEPDLPEVDVELPTMPKDSPQQLELLSGPCERRKAPLQDPFPEEDYSSTEGSGGRITFNVDLNSVFLRVLDDEDSDDLEAPLMLSSHLEEMVDPEDPDNVQSNHLLASGEGTQPTFPSPSSEGLWSEDAPSDQSDTSESDVDLGDGYIMR [S400A],increasing interaction
2,MLLSQNAFIFRSLNLVLMVYISLVFGISYDSPDYTDESCTFKISLRNFRSILSWELKNHSIVPTHYTLLYTIMSKPEDLKVVKNCANTTRSFCDLTDEWRSTHEAYVTVLEGFSGNTTLFSCSHNFWLAIDMSFEPPEFEIVGFTNHINVMVKFPSIVEEELQFDLSLVIEEQSEGIVKKHKPEIKGNMSGNFTYIIDKLIPNTNYCVSVYLEHSDEQAVIKSPLKCTLLPPGQESESAESAKIGGIITVFLIALVLTSTIVTLKWIGYICLRNSLPKVLNFHNFLAWPFPNLPPLEAMDMVEVIYINRKKKVWDYNYDDESDSDTEAAPRTSGGGYTMHGLTVRPLGQASATSTESQLIDPESEEEPDLPEVDVELPTMPKDSPQQLELLSGPCERRASPLQDPFPEEDYSSTEGSGGRITFNVDLNSVFLRVLDDEDSDDLEAPLMLSSHLEEMVDPEDPDNVQSNHLLASGEGTQPTFPSPSSEGLWSEDAPSDQSDTSESDVDLGDGYIMR [K399A],decreasing interaction
3,MLLSQNAFIFRSLNLVLMVYISLVFGISYDSPDYTDESCTFKISLRNFRSILSWELKNHSIVPTHYTLLYTIMSKPEDLKVVKNCANTTRSFCDLTDEWRSTHEAYVTVLEGFSGNTTLFSCSHNFWLAIDMSFEPPEFEIVGFTNHINVMVKFPSIVEEELQFDLSLVIEEQSEGIVKKHKPEIKGNMSGNFTYIIDKLIPNTNYCVSVYLEHSDEQAVIKSPLKCTLLPPGQESESAESAKIGGIITVFLIALVLTSTIVTLKWIGYICLRNSLPKVLNFHNFLAWPFPNLPPLEAMDMVEVIYINRKKKVWDYNYDDESDSDTEAAPRTSGGGYTMHGLTVRPLGQASATSTESQLIDPESEEEPDLPEVDVELPTMPKDSPQQLELLSGPCERRAAPLQDPFPEEDYSSTEGSGGRITFNVDLNSVFLRVLDDEDSDDLEAPLMLSSHLEEMVDPEDPDNVQSNHLLASGEGTQPTFPSPSSEGLWSEDAPSDQSDTSESDVDLGDGYIMR [K399A;S400A],decreasing interaction
